Experimental findings from patent US8822645B2, “Prostaglandin E2 dual variable domain immunoglobulins and uses thereof” (AbbVie Inc., priority 2008, dated 2014) are described below.

In data set [1] the test system is C57BL6/N mice, LPS/D-Galactosamine-induced lethality. Kind of data set: LPS-D-galactosamine-induced lethality. The format is in vivo, mouse. Conditions: 12 mg/kg IP. As to the method:
Saline alone was used as a negative control. Another group received […] 8C11-1E10, an anti-mouse TNF monoclonal antibody, as a positive control.
At the time of challenge, the mice were injected i.p. with 500 μL dose volume of saline containing 100 ng/mouse LPS (Sigma L4130, lot 095K4056, St. Louis, Mo.) and 20 mg/mouse D-Galactosamine (Sigma G-0500, lot 048K1547, St. Louis, Mo.). The mice were then monitored for lethality twice a day for 48 hours. At 48 hours the remaining surviving mice were sacrificed and bled for plasma antibody levels.

Data set [2] relates to stable cell lines overexpressing a cell-surface antigen of interest or human tumor cell lines. Kind of data set: Flow cytometry (FACS) binding to cell surface antigen. The format is cell-based. The note with it: IL-6R VD in C-terminal position; 2 μg/mL. As to the method: Stable cell lines overexpressing cell-surface antigen of interest or human tumor cell lines were harvested from tissue culture flasks and resuspended in phosphate buffered saline (PBS) containing 5% fetal calf serum (PBS/FCS). Prior to staining, human tumor cells were incubated on ice with human IgG at 200 μg/ml in PBS/FCS. 1-5×10^5 cells were incubated with antibody or DVD-Ig (1-2 μg/mL) in PBS/FCS for 30-60 minutes on ice. […] After 30 minutes incubation on ice, cells were washed twice and resuspended in PBS/FCS. Fluorescence was measured using a Becton Dickinson FACSCalibur (Becton Dickinson, San Jose, Calif.).
Stable cell lines overexpressing a cell-surface antigen of interest or human tumor cell lines were harvested from tissue culture flasks and resuspended in phosphate buffered saline (PBS) containing 5% fetal bovine serum (PBS/FBS). Prior to staining, human tumor cells were incubated on ice with (100 μl) human IgG at 5 μg/ml in PBS/FCS. 1-5×10^5 cells were incubated with antibody or DVD-Ig (2 μg/mL) in PBS/FBS for 30-60 minutes on ice. […] After 30 minutes incubation on ice, cells were washed twice and resuspended in PBS/FBS. Fluorescence was measured using a Becton Dickinson FACSCalibur (Becton Dickinson, San Jose, Calif.).
The geometric mean is the n root of the multiplication product of n fluorescent signals (a1×a2×a3 . . . an). […]
(In general: A flow cytometer gives signals particle by particle.)

The nature of data set [3]: Size exclusion chromatography, percent monomer of parent antibodies and DVD-Ig constructs. The class given is physicochemical. As to the method:
Antibodies were diluted to 2.5 mg/mL with water and […] is analyzed on a Shimadzu HPLC system using a TSK gel G3000 SWXL column (Tosoh Bioscience, cat#k5539-05k). […] The HPLC system operating conditions are the following: […]
(Size exclusion chromatography separates by hydrodynamic size, large species first.)

Data set [4] in a line: PGE2-biotinamide ELISA (PGE2 binding). The note with it: PGE2 VD in N-terminal position, read-out: Direct Bind ELISA N-terminal VD EC50. As to the method:
(§1) Enzyme linked immunosorbent assays to screen for anti-PGE2 antibodies or anti-PGE2 containing DVD-Ig molecules that bind prostaglandin E2 were performed as follows. ELISA plates (Costar 3369, Corning, N.Y.) were coated with 50 μl of anti-host Fc IgG (Sigma, St. Louis, Mo.) at 2 μg/ml in PBS (Invitrogen Carlsbad, Calif.). Following an overnight incubation at 4° C., the plate was blocked with 200 μl Superblock (Pierce #37535, Rockford, Ill.). The IgG or DVD-Ig containing samples were diluted to 1 μg/ml in Assay Buffer (10% Superblock in PBS containing 0.05% Surfactamps (Pierce #37535, Rockford, Ill.) and incubated on the plate at 50 μl/well for 1 hour at room temperature. Following the incubation, plates were washed four times with TTBS (Tween-Tris Buffered Solution). For PGE2 binding, PGE2-biotinamide (Cayman Chemicals, Ann Arbor, Mich.) was diluted to 30 nM and serially diluted in Assay Buffer. The titration curve was added to each IgG or DVD-Ig sample at a volume of 50 μl/well and incubated for 1 hour at room temperature. The plates were washed as previously described and 50 μl/well of 1:5000 dilution of streptavidin polyhrp40 (Fitzgerald Industries, Concord, Mass.) in Assay Buffer was added and incubated for 45 minutes at room temperature. A final wash step was performed and the plates were developed using a single step TMB system (Sigma #T8665, St. Louis, Mo.) and 2N H2SO4. Plates were read at 450 nm on a Molecular Devices Spectramax plate reader (Sunnyvale, Calif.). EC50 was determined using GraphPad Prism 5 (GraphPad Software, La Jolla, Calif.) (FIG. 2).
as §1, with “ELISA” for “Enzyme linked immunosorbent assays to screen for anti-PGE2 antibodies or anti-PGE2 containing DVD-Ig molecules that bind prostaglandin E2 were performed as follows. ELISA”, “(Invitrogen,” for “(Invitrogen”, “IgG” for “IgG or DVD-Ig”, “Solution).” for “Solution). For PGE2 binding,”, “Calif.).” for “Calif.) (FIG. 2).”
(In general: ELISA stands for enzyme-linked immunosorbent assay.)

The subject of data set [5] is PGE2 / human EP4 receptor in HEK293 Gα16 cells. Kind of data set: EP4 bioassay (Ca++ flux, neutralization of PGE2). The class given is cell-based. The note with it: PGE2 VD in N-terminal position; EP4 bioassay, Ca++ flux; read-out: N-terminal VD PGE2 Neutralization EC50. As for the experimental part:
The ability of anti-PGE2 antibodies and anti-PGE2 containing DVD-Ig molecules to inhibit the cellular response of PGE2 was determined in a Ca++ flux assay in HEK293 Gα16 cells stably transfected with human EP4 receptor. Cells were plated in black/clear poly-D-lysine plates, (Corning #3667, Corning, N.Y.) and incubated with Ca++-sensitive dye (Molecular Devices) for 90 minutes. Stock PGE2 (in 200 proof ethanol) was diluted with FLIPR buffer (containing 1×HBSS (Invitrogen, Carlsbad, Calif.), 20 mM HEPES (Invitrogen, Carlsbad, Calif.), 0.1% BSA (Sigma, St. Louis, Mo.) and 2.5 mM Probenecid (Sigma, St. Louis, Mo.)). Anti-PGE2 antibodies, DVD-Ig molecules or isotype matched control antibodies were also pre-diluted in FLIPR buffer. 25 μl of PGE2 or pre-incubated PGE2/antibody mixture or pre-incubated PGE2/DVD-Ig molecule mixture was added to the wells pre-plated with cells. A dose response of PGE2 was done by a serial titration of PGE2 and was determined using FLIPR1 or Tetra (Molecular Devices). EC50 was determined using GraphPad Prism 5 (GraftPad Software, La Jolla, Calif.). […] Ca++ flux was monitored using FLIPR1 and data was analyzed using GraphPad Prism 5.
The ability of anti-PGE2 antibodies and anti-PGE2 containing DVD-Ig molecules to inhibit the cellular response of PGE2 was determined in a Ca++ flux assay using stably transfected human EP4 in HEK293 Gα16 cells. Cells were plated in black/clear Poly-D-Lysine plates, (Corning #3667) and incubated with Ca++-sensitive dye (Molecular Devices) for 90 minutes. Stock PGE2 (in 200 proof ethanol) was diluted with FLIPR buffer (containing 1×HBSS, 20 mM HEPES, 0.1% BSA and 2.5 mM Probenecid). Anti-PGE2 antibodies, DVD-Ig molecules or isotype matched control antibodies were also pre-diluted in FLIPR buffer. 25 μl of PGE2 or pre-incubated PGE2/antibody mixture or pre-incubated PGE2/DVD-Ig molecule mixture was added to the wells pre-plated with cells. A dose response of PGE2 was done by a serial titration of PGE2 and was determined using FLIPR1 or Tetra (Molecular Devices). EC50 was determined using GraphPad Prism 5. […] Ca++ flux was monitored using FLIPR1 and data was analyzed using GraphPad Prism 5.

B1: 8C11: murine anti-mouse TNFα monoclonal antibody clone (antibody, V domains shown)
VH: EFQLQQSGPELVKPGASVRISCKASGYSFTDYNMNWVKQSNGKSLEWVGVINPNYGSSTYNQKFKGKATLTVDQSSSTAYMQLNSLTSEDSAVYYCARKWGQLGRGFFDVWGTGTTVTVSS
VL: QIVLSQSPAILSASPGEKVTMTCRASSSVSYMHWFQQKPGSSPKPWIYATSNLASGVPARFSGSGSGTSYSLTISRVEAEDAATYYCQQWSSSPLTFGAGTKLELKR
For the molecule B1, in data set [1], the “% Survival” value is 100% and the “Mean Plasma Ab Concentration” value amounted to 65 ± 4.0 µg/mL.

B2: DVD151: DVD-Ig construct listed in Table 4 (antibody)
VH: EVQLVQSGAEVKKPGASVKVSCKASGYTFTKYWLGWVRQAPGQGLEWMGDIYPGYDYTHYNEKFKDRVTLTTDTSTSTAYMELRSLRSDDTAVYYCARSDGSSTYWGQGTLVTVSSASTKGPEVQLQESGPGLVRPSQTLSLTCTVSGYSITSDHAWSWVRQPPGRGLEWIGYISYSGITTYNPSLKSRVTMLRDTSKNQFSLRLSSVTAADTAVYYCARSLARTTAMDYWGQGSLVTVSS
VL: DVLMTQTPLSLPVTPGEPASISCTSSQNIVHSNGNTYLEWYLQKPGQSPQLLIYKVSNRFSGVPDRFSGSGSGTDFTLKISRVEAEDVGVYYCFQVSHVPYTFGGGTKVEIKRTVAAPDIQMTQSPSSLSASVGDRVTITCRASQDISSYLNWYQQKPGKAPKLLIYYTSRLHSGVPSRFSGSGSGTDFTFTISSLQPEDIATYYCQQGNTLPYTFGQGTKVEIKR
The term EC50 denotes the concentration needed to bring the measured effect to its halfway point. On to B2, for which the “FACS Geometric Mean C-terminal” value in data set [2] is 0.21. Further, the “% Monomer (purity)” value in data set [3] is on record as 92.7%. The figures for the EC50 in data set [4] and in data set [5] were 1.52 nM and 0.036 nM, respectively.
